Results: US20130236458A1 (AbbVie / Abbott, published 2013)
Where a chain is given by its changes, count along the chain named.

T1: Recombinant Human IL-17 (human, UniProt Q16552 20-155, limits assumed)
T1 construct: bought reagent; also called IL-17A
T1 sequence (looked up): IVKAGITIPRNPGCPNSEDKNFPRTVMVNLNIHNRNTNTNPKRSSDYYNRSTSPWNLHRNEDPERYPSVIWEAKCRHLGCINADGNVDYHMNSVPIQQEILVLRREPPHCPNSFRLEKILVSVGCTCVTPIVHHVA

B1: DVD2196 (bispecific antibody)
VH: EVQLVQSGAEVKKPGASVKVSCKASGYTFTSYWMHWVRQAPGQGLEWIGNINPKGGSNIYNEKFQGRVTMTRDTSISTAYMELSRLRSDDTAVYYCARLDYFGDSFDLWGQGTTVTVSSASTKGPEVQLVQSGAEVKKPGESVKISCKASGGSFRSYGISWVRQAPGQGLEWMGGITHFFGITDYAQKFQGRVTITADESTTTAYMELSGLTSDDTAVYYCAREPNDFWNGYYDTHDFDSWGQGTTVTVSS
VL: DIQMTQSPSSLSASVGDRVTITCRASQGIRNYLNWYQQKPGKAPKLLIYYASNLEVGVPSRFSGSGSGTDYTLTISSLQPEDFATYYCQQDNRFPYTFGGGTKVEIKRTVAAPEIVLTQSPDFQSVTPKEKVTITCRASQNIGSELHWYQQKPDQSPKLLIKYASHSISGVPSRFSGSGSGTDFTLTINGLEAEDAATYYCHQSDTLPHTFGQGTKVDIKR
notes: DVD-Ig; also called DVD2196H; DVD2196L
B2: DVD2200 (bispecific antibody)
VH: EVQLVQSGAEVKKPGASVKVSCKASGYTFTSYWMHWVRQAPGQGLEWIGNINPKGGSNIYNEKFQGRVTMTRDTSISTAYMELSRLRSDDTAVYYCARLDYFGDSFDLWGQGTTVTVSSASTKGPSVFPLAPEVQLVQSGAEVKKPGESVKISCKASGGSFRSYGISWVRQAPGQGLEWMGGITHFFGITDYAQKFQGRVTITADESTTTAYMELSGLTSDDTAVYYCAREPNDFWNGYYDTHDFDSWGQGTTVTVSS
VL: B1 VL
notes: DVD-Ig; also called DVD2200H; DVD2200L
B3: DVD2193 (bispecific antibody)
VH: EVQLVQSGAEVKKPGSSVKVSCKASGGSFGGYGIGWVRQAPGQGLEWMGGITPFFGFADYAQKFQGRVTITADESTTTAYMELSGLTSDDTAVYYCARDPNEFWNGYYSTHDFDSWGQGTTVTVSSASTKGPEVQLVQSGAEVKKPGASVKVSCKASGYTFTSYWMHWVRQAPGQGLEWIGNINPKGGSNIYNEKFQGRVTMTRDTSISTAYMELSRLRSDDTAVYYCARLDYFGDSFDLWGQGTTVTVSS
VL: EIVLTQSPDFQSVTPKEKVTITCRASQDIGSELHWYQQKPDQPPKLLIKYASHSTSGVPSRFSGSGSGTDFTLTINGLEAEDAGTYYCHQTDSLPYTFGPGTKVDIKRTVAAPSVFIFPPDIQMTQSPSSLSASVGDRVTITCRASQGIRNYLNWYQQKPGKAPKLLIYYASNLEVGVPSRFSGSGSGTDYTLTISSLQPEDFATYYCQQDNRFPYTFGGGTKVEIKR
notes: DVD-Ig; also called DVD2193H; DVD2193L
B4: DVD2199 (bispecific antibody)
VH: EVQLVQSGAEVKKPGESVKISCKASGGSFRSYGISWVRQAPGQGLEWMGGITHFFGITDYAQKFQGRVTITADESTTTAYMELSGLTSDDTAVYYCAREPNDFWNGYYDTHDFDSWGQGTTVTVSSASTKGPEVQLVQSGAEVKKPGASVKVSCKASGYTFTSYWMHWVRQAPGQGLEWIGNINPKGGSNIYNEKFQGRVTMTRDTSISTAYMELSRLRSDDTAVYYCARLDYFGDSFDLWGQGTTVTVSS
VL: B3 VL with D28N, P43S, T55I, G84A, T91S, S93T, Y96H, P100Q
notes: DVD-Ig; also called DVD2199H; DVD2199L
B5: DVD2153 (bispecific antibody)
VH: EVQLVQSGAEVKKPGSSVKVSCKASGYTFTDYEIHWVRQAPGQGLEWMGVNDPESGGTFYNQKFDGRVTLTADESTSTAYMELSSLRSEDTAVYYCTRYSKWDSFDGMDYWGQGTTVTVSSASTKGPSVFPLAPEVTLRESGPGLVKPTQTLTLTCTLYGFSLSTSDMGVDWIRQPPGKGLEWLAHIWWDDVKRYNPALKSRLTISKDTSKNQVVLKLTSVDPVDTATYYCARTVSSGYIYYAMDYWGQGTLVTVSS
VL: DIQMTQSPSSLSASVGDRVTITCRASSGIISYIDWFQQKPGKAPKRLIYATFDLASGVPSRFSGSGSGTDYTLTISSLQPEDFATYYCRQVGSYPETFGQGTKLEIKRTVAAPDIQMTQSPSSLSASVGDRVTISCRASQDIRNYLNWYQQKPGKAPKLLIFYTSKLHSGVPSRFSGSGSGTDYTLTISSLQPEDIATYYCQQGLTPPLTFGGGTKVEIKR
B6: DVD2195 (bispecific antibody)
VH: EVQLVQSGAEVKKPGSSVKVSCKASGGSFGGYGIGWVRQAPGQGLEWMGGITPFFGFADYAQKFQGRVTITADESTTTAYMELSGLTSDDTAVYYCARDPNEFWNGYYSTHDFDSWGQGTTVTVSSASTKGPSVFPLAPEVQLVQSGAEVKKPGASVKVSCKASGYTFTSYWMHWVRQAPGQGLEWIGNINPKGGSNIYNEKFQGRVTMTRDTSISTAYMELSRLRSDDTAVYYCARLDYFGDSFDLWGQGTTVTVSS
VL: EIVLTQSPDFQSVTPKEKVTITCRASQDIGSELHWYQQKPDQPPKLLIKYASHSTSGVPSRFSGSGSGTDFTLTINGLEAEDAGTYYCHQTDSLPYTFGPGTKVDIKRTVAAPDIQMTQSPSSLSASVGDRVTITCRASQGIRNYLNWYQQKPGKAPKLLIYYASNLEVGVPSRFSGSGSGTDYTLTISSLQPEDFATYYCQQDNRFPYTFGGGTKVEIKR
notes: DVD-Ig; also called DVD2195H; DVD2195L
B7: DVD2201 (bispecific antibody)
VH: EVQLVQSGAEVKKPGESVKISCKASGGSFRSYGISWVRQAPGQGLEWMGGITHFFGITDYAQKFQGRVTITADESTTTAYMELSGLTSDDTAVYYCAREPNDFWNGYYDTHDFDSWGQGTTVTVSSASTKGPSVFPLAPEVQLVQSGAEVKKPGASVKVSCKASGYTFTSYWMHWVRQAPGQGLEWIGNINPKGGSNIYNEKFQGRVTMTRDTSISTAYMELSRLRSDDTAVYYCARLDYFGDSFDLWGQGTTVTVSS
VL: B6 VL with D28N, P43S, T55I, G84A, T91S, S93T, Y96H, P100Q
notes: DVD-Ig; also called DVD2201H; DVD2201L
B8: DVD2197 (bispecific antibody)
VH: B4 VH
VL: B6 VL with D28N, P43S, T55I, G84A, T91S, S93T, Y96H, P100Q
notes: DVD-Ig; also called DVD2197H; DVD2197L

Columns and labels:
Recombinant Human IL-13 [1] = biological target: T2, Recombinant Human IL-13 (human, UniProt P35225 35-146, limits assumed); experiment: SPR (Biacore)
T2 construct: bought reagent
T2 sequence (P35225 35-146 limits assumed): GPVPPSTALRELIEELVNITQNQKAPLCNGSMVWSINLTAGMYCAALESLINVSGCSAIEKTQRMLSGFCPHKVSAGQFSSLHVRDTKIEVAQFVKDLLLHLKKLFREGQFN
Description: (§1) The BIACORE assay (Biacore, Inc, Piscataway, N.J.) determined the affinity of antibodies or DVD-Ig with kinetic measurements of on-rate and off-rate constants. Binding of antibodies or DVD-Ig proteins to a target antigen (for example, a purified recombinant target antigen) was determined by surface plasmon resonance-based measurements with a Biacore®1000 or 3000 instrument (Biacore® AB, Uppsala, Sweden) using running HBS-EP (10 mM HEPES [pH 7.4], 150 mM NaCl, 3 mM EDTA, and 0.005% surfactant P20) at 25° C. All chemicals were obtained from Biacore® AB (Uppsala, Sweden) or otherwise from a different source as described in the text. For example, approximately 5000 RU of goat anti-mouse IgG, (Fcγ), fragment specific polyclonal antibody (Pierce Biotechnology Inc, Rockford, Ill.) diluted in 10 mM sodium acetate (pH 4.5) was directly immobilized across a CM5 research grade biosensor chip using a standard amine coupling kit according to manufacturer's instructions and procedures at 25 μg/ml. Unreacted moieties on the biosensor surface were blocked with ethanolamine. Modified carboxymethyl dextran surface in flowcell 2 and 4 was used as a reaction surface. Unmodified carboxymethyl dextran without goat anti-mouse IgG in flow cell 1 and 3 was used as the reference surface. For kinetic analysis, rate equations derived from the 1:1 Langmuir binding model were fitted simultaneously to association and dissociation phases of all eight injections (using global fit analysis) with the use of Biaevaluation 4.0.1 software. Purified antibodies or DVD-Ig proteins were diluted in HEPES-buffered saline for capture across goat anti-mouse IgG specific reaction surfaces. Antibodies or DVD-Ig proteins to be captured as a ligand (25 μg/ml) were injected over reaction matrices at a flow rate of 5 μl/minute. The association and dissociation rate constants, kₒₙ (M⁻¹s⁻¹) and koff (s⁻¹) were determined under a continuous flow rate of 25 μl/minute. Rate constants were derived by making kinetic binding measurements at different antigen concentrations ranging from 10-200 nM. The equilibrium dissociation constant (M) of the reaction between antibodies or DVD-Ig proteins and the target antigen was then calculated from the kinetic rate constants by the following formula: KD=koff/kₒₙ. Binding was recorded as a function of time and kinetic rate constants were calculated.

Recombinant Human IL-17 [2] = biological target: T1, Recombinant Human IL-17; experiment: SPR (Biacore)
Description: as §1

Recombinant Human IL-13 [3] = biological target: T2, Recombinant Human IL-13; experiment: cell-based or functional assay
Recombinant Human IL-17 [4] = biological target: T1, Recombinant Human IL-17; experiment: cell-based or functional assay

Binder	Kd (Recombinant Human IL-13 [1]) [nM]	koff (Recombinant Human IL-13 [1]) [s⁻¹]	kon (Recombinant Human IL-13 [1]) [M⁻¹ s⁻¹]	Kd (Recombinant Human IL-17 [2]) [nM]	koff (Recombinant Human IL-17 [2]) [s⁻¹]	kon (Recombinant Human IL-17 [2]) [M⁻¹ s⁻¹]	N-Terminal VD IL13 Neutralization Assay IC50 (Recombinant Human IL-13 [3]) [nM]	C-Terminal VD IL17 Neutralization Assay IC50 (Recombinant Human IL-17 [4]) [nM]	C-Terminal VD IL13 Neutralization Assay IC50 (Recombinant Human IL-13 [3]) [nM]	N-Terminal VD IL17 Neutralization Assay IC50 (Recombinant Human IL-17 [4]) [nM]
B1	0.029	6.4e-05	2.2e+06	< 0.0091	< 1e-06	110000	0.029	0.0551	–	–
B2	0.045	6e-05	1.3e+06	0.025	4.6e-06	180000	0.096	0.0072	–	–
B3	0.066	3.9e-05	590000	0.012	2.2e-05	1.9e+06	–	–	0.028	0.014
B4	0.026	3.4e-05	1.3e+06	0.019	4.4e-05	2.3e+06	–	–	0.088	0.0102
B5	–	–	–	–	–	–	–	–	2.44	0.0049
B6	0.014	3.7e-05	2.6e+06	0.002	4.8e-06	2.4e+06	–	–	0.052	0.0181
B7	0.024	5.7e-05	2.4e+06	0.04	6.3e-05	1.6e+06	–	–	0.092	0.0116
B8	0.14	4.4e-05	310000	0.038	6.2e-05	1.6e+06	–	–	0.081	0.005
